This is an account of results in paper doi:10.1101/2025.08.18.670960.

For the test, the target named is UNC-119 tagged with the C-terminal fragment of Venus (C. elegans) (UniProt Q10658). The test can be described thus: split reporter (BiFC, NanoBiT); BiFC in AWC neurons of wild-type animals: VC::UNC-119 with ODR-3::VN variants; read-out is percent of transgenic animals with signal; free VN as negative control.
Sequence of UniProt Q10658 (Q10658 whole entry, the tested form may be a part): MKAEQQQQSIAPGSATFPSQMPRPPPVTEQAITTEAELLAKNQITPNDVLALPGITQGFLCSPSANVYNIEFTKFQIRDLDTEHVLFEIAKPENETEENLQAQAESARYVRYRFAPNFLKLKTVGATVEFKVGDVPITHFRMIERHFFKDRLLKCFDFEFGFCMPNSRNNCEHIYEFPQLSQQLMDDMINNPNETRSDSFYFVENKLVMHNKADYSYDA

For “ODR-3^A328P tagged with the N-terminal Venus fragment (from UniProt Q18434 1-356) (natural protein)”, the percent of transgenic animals with BiFC signal came out at 51%.

Regarding “ODR-3^WT tagged with the N-terminal Venus fragment (from UniProt Q18434 1-356) (natural protein)”, the percent of transgenic animals with BiFC signal was found to be 81%.
